Where a chain is given by its changes, count along the chain named. In names and notes the source's numbering stands. Blank lines part the entries; values can stand above or below the binder they belong to.
Assays:
[1] = molecular target: T1, cynomolgus monkey CD19 extracellular domain (ECD) fused to the human PSCA GPI anchor sequence, on transfected … (cynomolgus monkey; human); test: flow cytometry on HEK293 cells presenting cynomolgus CD19 ECD by GPI anchor
T1 construct: Presented on the surface of transiently transfected HEK293 cells; its processing in the cell is not described; also called cynomolgus CD19-ECD; cyCD19 ECD
T1 chain: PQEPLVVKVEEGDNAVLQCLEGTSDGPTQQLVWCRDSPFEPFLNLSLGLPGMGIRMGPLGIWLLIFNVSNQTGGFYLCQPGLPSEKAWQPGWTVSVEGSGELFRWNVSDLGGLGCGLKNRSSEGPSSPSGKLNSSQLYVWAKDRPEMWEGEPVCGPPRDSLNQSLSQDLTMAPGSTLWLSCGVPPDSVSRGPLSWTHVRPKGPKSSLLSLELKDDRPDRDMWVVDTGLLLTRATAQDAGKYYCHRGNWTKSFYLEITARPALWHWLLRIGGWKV
Experimental: HEK293 cells were transfected with 1 μg of plasmid DNA per 1.5×10⁶ cells using LipofectAmine 2000 and incubated thereafter for 48 hours at 37° C. […] GWKV; SEQ ID NO: 31) extracellular domain (ECD) fused to the human PSCA GPI anchor sequence ([…] WGPGQL; SEQ ID NO: 32) for extracellular presentation. […] The starting concentration of the antibodies was set to 60 μg/mL (2× final concentration) and then diluted in a 1:3 (v/v) titration series. The primary antibody was incubated on the cells for one hour at room temperature, followed by two wash steps. For secondary detection, anti-huIgG (H+L) antibody conjugated to Alexa488 in a concentration of 30 μg/mL was used.

[2] = molecular target: T2, extracellular domain of recombinant human CD19 receptor (human, UniProt P15391 20-291); test: SPR (BIAcore), half-life of the complex
T2 construct: extracellular domain; also called recombinant human CD19 ECD
T2 sequence (looked up): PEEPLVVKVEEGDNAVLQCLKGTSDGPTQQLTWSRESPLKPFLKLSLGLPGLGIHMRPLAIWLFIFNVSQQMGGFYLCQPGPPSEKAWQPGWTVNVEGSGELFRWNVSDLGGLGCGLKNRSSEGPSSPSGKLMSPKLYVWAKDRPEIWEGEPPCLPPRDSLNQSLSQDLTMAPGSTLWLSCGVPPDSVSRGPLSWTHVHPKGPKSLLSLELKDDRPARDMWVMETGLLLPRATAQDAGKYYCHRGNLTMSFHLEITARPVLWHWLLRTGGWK

EC50 [1]: 0.313 µg/mL
B1: wild-type humanized anti-human CD19 antibody (var.0: wt) (antibody, V domains shown)
VH: EVQLQQSGPELVKPGASVKMACKASGYTFTDYIMHWVKQKTGQGLEWIGYINPYNDGSKYTEKFNGKATLTSDKSSITAYMELSSLTSEDSAVYYCARGTYYYGSALFDYWGQGTTLTVSS
VL: DAVMTQTPLSLPVSLGDQASISCRSSQSLENSNGNTYLNWYLQKPGQSPQLLIYRVSKRFSGVLDRFSGSGSGTDFTLKISRVEAEDLGVYFCLQLTHVPYTFGGGTKLEIK
notes: it was detected with anti-human IgG and captured with anti-human Fab; also called variant 0: wt; humanized wild-type antibody

t1/2 [2]: 43.6 min
B2: humanized anti-human CD19 antibody var.5:S27eP (antibody, V domains shown)
VH: QVQLVQSGAEVKKPGASVKVSCKASGYTFTDYIMHWVRQAPGQGLEWMGYINPYNDGSKYTEKFQGRVTMTSDTSISTAYMELSRLRSDDTAVYYCARGTYYYGSALFDYWGQGTTVTVSS
VL: DIVMTQTPLSLSVTPGQPASISCKSSQSLENPNGNTYLNWYLQKPGQSPQLLIYRVSKRFSGVPDRFSGSGSGTDFTLKISRVEAEDVGVYYCLQLTHVPYTFGQGTKLEIK
notes: also called variant 5 (S27eP); variant 5

t1/2 [2]: 4 min
B3: humanized anti-human CD19 antibody var.9:S27eP/N28S (antibody, V domains shown)
VH: B2 VH
VL: B2 VL with N33S
notes: also called variant 9 (S27eP/N28S); variant 9

— patent publication US20180282409A1 (Hoffmann-La Roche, published 2018)
